# T1: C-terminal domain of ASPL (ASPL-C, residues 313-553) (human, UniProt Q9BZE9 313-553)
# T1 construct: the 26 kDa printed for ASPL-C in the cross-linking experiment fits the chain without GST; The cited crystal structure covers residues 317-499; source: E. coli BL21 DE3 Rosetta2, purified (glutathione-Sepharose 4B, Superdex 75 SEC)
# T1 sequence (looked up): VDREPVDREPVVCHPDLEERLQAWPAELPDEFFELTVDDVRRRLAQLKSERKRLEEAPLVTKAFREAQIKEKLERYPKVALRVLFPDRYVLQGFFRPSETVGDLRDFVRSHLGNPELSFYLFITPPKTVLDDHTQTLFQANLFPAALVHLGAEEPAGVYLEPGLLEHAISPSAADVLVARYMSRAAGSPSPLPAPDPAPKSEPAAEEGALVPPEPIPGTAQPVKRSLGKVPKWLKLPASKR
# Columns and labels:
# [1] = target: T1, C-terminal domain of ASPL (ASPL-C, …); assay: SPR; ASPL-C immobilised on CM5 chip by amine coupling (1000 RU); analytes 0.6 to 83 μM in 10 mM HEPES, 150 mM NaCl, 0.005% Tween20, pH 7.4; BIAcore 3000, duplicates; one-site specific binding fit of the response against concentration; no saturation reached; details: both partners purified
# [2] = target: the molecule itself; assay: SEC; Superdex 75 increase 10/300 of Ni-NTA purified Trx-ICH_(GLUT4)
binder,measurement,setting,value
"ESPRYLYCIQNLEGPARKSLKRLTGWADVSGVLAELKDECRKLERER (domain or fragment, UniProt P14672 225-271, looked up, human GLUT4 intracellular helical bundle (ICH) between TM6 and TM7, residues 225-271, with I232C and K264C to form a stabilising disulphide bond; Synthetic gene (GenScript) in pET24a; 18 kDa monomer; a 36 kDa peak was also seen on SEC; also called Trx-ICH_(GLUT4); ICH_(GLUT4); source: E. coli TUNER (DE3), purified (Ni-NTA, Superdex 75 SEC; monomer peak used); not shown: Trx (thioredoxin), …)",Kd,[1],68 µM
same,stoichiometry N,[2],2
